Reference: the DeepSol protein solubility set

Test: soluble on expression in E. coli; label from the status in PepcDB or PDB records

Row | Sequence | soluble on expression in E. coli
1 | MASPDEDNPGILYNGRFDFSDPNGPKCAWSGSNVELNFYGTEASVTIKSGGENWFQAIVDGNPLPPFSVNATTSTVKLVSGLAEGAHHLVLWKRTEASLGEVQFLGFDFGSGKLLAAPKPLERKIEFIGDSITCAYGNEGTSKEQSFTPKNENSYMSYAAITARNLNASANMIAWSGIGLTMNYGGAPGPLIMDRYPYTLPYSGVRWDFSKYVPQVVVINLGTNDFSTSFADKTKFVTAYKNLISEVRRNYPDAHIFCCVGPMLWGTGLDLCRSYVTEVVNDCNRSGDLKVYFVEFPQQDGSTGYGEDWHPSIATHQLMAERLTAEIKNKLGWLEHHHHHH | soluble
2 | MASQAASKAVTFAYNGTIASTLRKFAWSNLWGGREYGLQFHDTYFEPAPEVTEALRRLNLQEPHVFDQRKIRLSRAHTLALHGEKLPKAEWTQWDQESWYLKPYLDEIEAEKKARAETSGLIPPYQMKQH | not soluble
3 | MASQLTQRGALFLLFFLTPAVTPTWYAGSGYYPDESYNEVYAEEVPQAPALDYRVPRWCYTLNIQDGEATCYSPKGGNYHSSLGTRCELSCDRGFRLIGRRSVQCLPSRRWSGTAYCRQMRCHALPFITSGTYTCTNGVLLDSRCDYSCSSGYHLEGDRSRICMEDGRWSGGEPVCVDIDPPKIRCPHSREKMAEPEKLTARVYWDPPLVKDSADGTITRVTLRGPEPGSHFPEGEHVIRYTAYDRAYNRASCKFIVKVQVRRCPTLKPPQHGYLTCTSAGDNYGASCEYHCDGGYDRQGTPSRVCQSSRQWSGSPPICAPMKINVNVNSAAGLLDQFYEKQRLLIISAPDPSNRYYKMQISMLQQSTCGLDLRHVTIIELVGQPPQEVGRIREQQLSANIIEELRQFQRLTRSYFNMVLIDKQGIDRDRYMEPVTPEEIFTFIDDYLLSNQELTQRREQRDICE | soluble
4 | MASSPQLEEEAAGKLETIHASAMAKSKKKTDVVDSTNLPILELLSLKAPIFQSLLHPELPIIITGFGTGHIVCHRYDPAKLQSHLDRRRRIDTATTGKDAKKGVCPWIRLDIDLETGDLKFVDIEEQQQQKQTGKDEDLGVKTLWKTKRHKGSVRAMCFDSKGDNIFSVGSDNVLKKANTMTGKVVKKVNLSSLFNSEEKKNDKFTKLCASQTHPFILIGDESGNIHVINSENLALSNSIRSIHFGDSINDIFHFDKRSAYKFISLGQTTLAYFDVRDKDAKPNVAGNEDGKILISDDQEDEVLCGCFVDPEVADTLLCGMGEGIVTVWKPNKNDLEDQMSRIKISKDESIDCIVPTLQDDNCVWCGCSNGNIYKVNAKLGKVVEIRNHSELDEVSFVDLDFEYRVVSGGLENIKIWELSSDDVEENASVESDSDEPLSHSDEDLSDDTSSDDETTLVGLSKEELLDELDKDLKEDHQEEKESNSKSVKKRKIMKENNKKKDLYEHGIKKFDDL | soluble
5 | MASSTTFVIVGGGLAGAKAVEALRRSDFGGRIILFGDEEHLPYDRPPLSKEFLAGKKSLSDFTIQTSDWYRDHDVDVRLGVRVSSLDRSAHTVELPDGAAVRYDKLLLATGSAPRRPPIPGSDAAGVHYLRSYNDAVALNSVLVQGSSLAVVGAGWIGLEVAASARQRGVDVTVVETAIQPLLAALGEAVGKVFADLHRDQGVDLRLQTQLEEITAADGKATGLKMRDGSTVAADAVLVAVGAKPNVELAQQAGLAMGEGGVLVDASLRTSDPDIYAVGDIAAAEHPLLGTRVRTEHWANALKQPAVAAAGMLGRPGEYAELPYLFTDQYDLGMEYVGHAPSCDRVVFRGNVAGREFLSFWLDGDSRVLAGMNVNVWDVVDDVKGLIRSGNPVDVDRLVDPQWPLADLTTN | not soluble
6 | MASTELSLKRTLTDILEDELYHTNPGHSQFTSHYQNYHPNASITPYKLVNKNKENNTFTWNHSLQHQNESSAASIPPQQTYHFPIFNKYADPTLTTTTSFTTSEATANDRQINNVHLIPNEIKGASETPLQKTVNLKNIMKVSDPYVPTRNTFNYDVKISNDFFDNGDNLYGNDEEVLFYEDNYNPKMQWSLQDNSAAINNEDARAIFNNEFDSDDDDISDDEEDEIEENCLQQEQHQEEPLLSLDVTPISMFGSDQKTGRAKSSSHLFNEYSYVDSNMDSISSVVSEDLLDERGHEKIEDEDEDNDLDEDDIYDISLLKNRRKQSFVLNKNTIDFERFPSPSTSANVPSTATTGKRKPAKSSSNRSCVSNSNENGTLERIKKPTSAVVSSNASRRKLINYTKKHLSSHSSTNSNSKPSTASPSAHTSSSDGNNEIFTCQIMNLITNEPCGAQFSRSYDLTRHQNTIHAKRKIVFRCSECIKILGSEGYQKTFSRLDALTRHIKSKHEDLSLEQRQEVTKFAKANIGYVMG | not soluble
7 | MASTGVERRKPLENKVALVTASTDGIGLAIARRLAQDGAHVVVSSRKQENVDRTVATLQGEGLSVTGTVCHVGKAEDRERLVAMAVNLHGGVDILVSNAAVNPFFGNIIDATEEVWDKILHVNVKATVLMTKAVVPEMEKRGGGSVLIVSSVGAYHPFPNLGPYNVSKTALLGLTKNLAVELAPRNIRVNCLAPGLIKTNFSQVLWMDKARKEYMKESLRIRRLGNPEDCAGIVSFLCSEDASYITGETVVVGGGTASRL | soluble
8 | MASTKSELIERLATQQSHIPAKTVEDAVKEMLEHMASTLAQGGSGGLTKAEMSEYLFDKLGLSKRDAKELVELFFEEIRRALENGEQVELSGFGNFDLRDKNQRPGRNPKTGEDIPITARRVVTFRPGQKLKSRVENAGGGERIEIRGFGSFSLHYRAPRTGRNPKTGDKVELEGKYVPHFKPGKELRDRANIYGGSGHHHHHH | soluble
9 | MASTTQNTPTKDLAEISERFEKLRARSSNNMATFNTTSSYNRTYEKKVIEEGSPNVRVTTQTHTAIPGMPDLGNIHSSMLSNFPNLAISSPSVVGSQNGNLTSIRVTNTSFHAILDVSKYDADSLKVTVVDNNIIVEGSHGEKEDTYGTIESTFKRRFPLPKAVAPESVQSQLTADGHLTIDAKAPEPKQEGARPIQIKVINTSAEQQKQ | not soluble
10 | MASVELSADVPISPQDTWDHVSELSELGEWLVIHEGWRSELPDQLGEGVQIVGVARAMGMRNRVTWRVTKWDPPHEVAMTGSGKGGTKYGVTLTVRPTKGGSALGLRLELGGRALFGPLGSAAARAVKGDVEKSLKQFAELYGLEHHHHHH | not soluble
11 | MASWSHPQFEKGAETAVPNSSSVPGDPSSMTRKNVLLIVVDQWRADFIPHLMRAEGREPFLKTPNLDRLCREGLTFRNHVTTCVPGGPARASLLTGLYLMNHRAVQNTVPLDQRHLNLGKALRAIGYDPALIGYTTTTPDPRTTSARDPRFTVLGDIMDGFRSVGAFEPNMEGYFGWVAQNGFELPENREDIWLPEGEHSVPGATDKPSRIPKEFSDSTFFTERALTYLKGRDGKPFFLHLGYYRPHPPFVASAPYHAMYKAEDMPAPIRAENPDAEAAQHPLMKHYIDHIRRGSFFHGAEGSGATLDEGEIRQMRATYCGLITEIDDCLGRVFAYLDETGQWDDTLIIFTSDHGEQLGDHHLLGKIGYNAESFRIPLVIKDAGQNRHAGQIEEGFSESIDVMPTILEWLGGETPRACDGRSLLPFLAEGKPSDWRTELHYEFDFRDVFYDQPQNSVQLSQDDCSLCVIEDENYKYVHFAALPPLFFDLKADPHEFSNLAGDPAYAALVRDYAQKALSWRLSHADRTLTHYRSSPQGLTTRNH | soluble
12 | MATASQRNFLAVPDWLDAAILISDEQTSDIFDLAWDMDDFWVFGYGSLMWNPGFAFEERQQARLHGYRRSLCISSNFYRGTEEKPGLVLGLERGGSCLGVAFRVRGKDHDPVMAYLRERELVTNVYKERVVSIALANGRRGSAVTYVADPAHEQYIGGLGVAESAVIIAAATGRSGPNTDYLFNTVQHLQEMGIRDSLLESIAASVGTLSAQSAVVSLPLEHHHHHH | not soluble
13 | MATDQKRGLLIVFEGLDRSGKSTQAKRLVESINKKSTESGDASSSPSAVLQAFPDRSSSIGKLIDQYLRKEIDMDEHALHLLFSADRFSKNQMIRDNIAKGIDVICDRYCYSGVAYSLAKGLPEQWVRSSDVGLPKPDAVLFFDVSPEVAAQRGGFGEERLETATIQQKVAAVMPTLRDDAYWKTVNADGDLDSVEKNVFRIYENLDREKPFESLEKI | not soluble
14 | MATGNRNPENFTSLSPIVKAPITDTLSVPLSQQGRICGFFESQFYRCMEAYGAKMGRKYCDLEHRDFQECVTGDKQKKRADAIREQRCKLFLDGKIAKPYVDNHPEPGQFKTDHFQWNRIN | not soluble
15 | MATHKLSFFEKLANTFGALYRHQAQQFPRRLAILKAVGKHELAPPRSADIPAIKADWAKLQKFIETKQYVNLSIKESLVYSAVALEVVFWFFVGEMIGRRYIFGYIVPANYVSKDTKAKVAEKKRLAALEA | not soluble
